Assay: soluble fraction after stress (log2 fold change); higher = more stays soluble; pooled small domains, quantitative proteomics
Details: stress: pH 4
Outline: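 Values are log2 fold changes, and higher ones mean more of the domain stayed soluble. Each fold change reflects the soluble amount of a domain after acid stress and is taken as a measure of aggregation propensity. The stress was pH 4, applied to pooled custom libraries of small protein domains analysed by high-throughput quantitative proteomics.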

Row | Sequence | soluble fraction (log2)
1 | HMAPTPAGNLRSLKSEIVNYTRQSSTAYVYTFKDLSSGELYTARASRYYAAAGDTAYISTAAGAITDM | -0.0513
2 | HMLNNVDIHKLSEDLLLYKIKIDIKLKNIEDAISTIDYFSNKFPNSDLMPYVIYEKKLIDNI | -0.741
3 | HMNEIESFSNTKNPFSLTFKTSKDSSYKVEASSNLKKWTTLSQIKGTGNPITFTESRRILFRKQYYRVTLS | 0.102
4 | HMQSLPFSFAKRHGVLLKSINHLHGEAVYRIGANPLSLSEVQRYAGVPLKLSSITVEKFDRLLQETYEHD | -0.436
5 | HMTYMWTTDGVNLRSEPNTDSAVVTVLGVGTQVRMIGEEDGWVKVSFNDQEGYIRADFLTTE | -0.476
6 | HMPWLIAVTVDGVNLPRFLRRAGEMGLLLTGVRIRGKHLSAFAREDDVPPLRMMAENGGWRFSVGN | -0.302
7 | HMHRNLSFEEEKEFLSAYTKQAEAGQIVDLNEMKAAYIEKVGHSIGGSQIYRMLERHGWRKVM | -0.468
8 | HMEVDWLEVEKVIVSSSYSWMENSPKVKLLQEYIGVTADGIYGLGTWGAHRTHAVDLGFINLSYPIP | -1.69
9 | HMLIDSEILKKTNKITIFLIYAFFSEYLINKEKKKILIGEYIKLSKDFLTIEEVKYFNHLLDDISK | -0.304
10 | HMPSREDFAYDSIKEAILSGELLPNQKISLSDLANKLGISIIPVNSAVGRLVAEGLVRQDPHHSPYVV | -0.31
11 | HMRGESFSTLVSILQEMSARKAAQVLNGLSEGLAVEVLRALPSDVAGDILGRMDAAKAAALMEQLST | -0.9
12 | HMDIYENIDKELSKQGKSRRKLAIAAGIPPSTFQSMMERKRGLSVENLRKIAEVLNLKWYDLL | 0.135
13 | HMDINNTNFSRDVDNLLQNEEFIKWRIFRTKEWEDYWENFRKENPHMEDALQEAISRFNAVK | -0.736
14 | HMVRKIQAKLVLRLHAQGLSGRAIARSQGMSRRSVSDVLDAARAVGVGWDDVTGKTDGEVYALLFPGRG | 0.0261
15 | HMRVESVGDRIRRLRKSLGLTQVKLAQMLGIKAPSVVQWESDKTNLSGENLLNAAKLFGVTPDYILYGG | 0.233
16 | HMEFDYIVKVPDVRNKKIEDAGKILIDLGLKYTTESDYITQDLKVIDQFPLPGTEVSKGSIIDIYLEEDFK | -0.446
17 | HMAVEQLKSQIGGFLKANREQSFSAQNMADGLRMNSAAGYQDVVNAMNALVRDGEAVEKDGQFSYNVN | -0.0292
18 | HMNITFAENIKQFRKAKSMSMEELGKRLGKAKSSISAWENGKRTPKINELKSISEALGVTISQLLGF | -0.293
19 | HMDNIGKTLGQNQTRQYKVAYAEAAKLPAIIMGLVPLPKPPVVDERLRSLYVTATPEQHRQIETLMNRI | -0.64
20 | HMGKTEETLQMEKLVEALRRSGRMKYEDAYRIVYAAFPDAKDFEGMLSGAIRAGFIELQMGNDGAFLRAL | -0.67
21 | HMFRSNAERAAHLASALPRAEAELAALQARGAATSENIYLRSSYFDALRYTEELRAAKRAQDALQGA | 0.0123
22 | HMASPTKQLVLEALRASGQPMSSMELSAQIGVSRATAQRYLSTLASAGEVKIQLRYGTTGRPEQEFLAIE | 0.22
23 | HMNIYIEFGRRLAFIRQNSKLSQSQIAQKLNIAQSTYAGYEKGVRKIPLEIIVQLSKILNISPTILILG | -0.618
24 | HMGTVKWFNATKGFGFIVPSDGGKDVFVHITAVQKAGLQGLNEGQKVSYEVAMERGKAAATNLR | -0.259
25 | HMGLSASVIQMFADLGYTSEGRSTKEMITDYQIDHSIIKNSTEDGAGTYGPRTKASLSTVHAQYI | -0.535
26 | HMGQVSDENQLNKVIDEVIKNYPIQVEQFKAGKEPILQFLKGMVMKATEGSADPAVAEKLLRKKL | 0.0192

Row | Sequence | soluble fraction (log2)
27 | HMADVYFDGKFLGETPVTVAVSTTGKPAHEISLIRGGYEPWSTTYQGNPRPGQTATVMAILVHA | -0.121
28 | HMQISLAAARVNAGLTQEEVAKAMKVGKQTIVSWEKGNSEPKMSQSRELSELYKIPLDYIFYP | 0.138
29 | HMLKKRKPMSGVGVIVKGMLTGTVTGTDGSYALKARPNDELSFSFLGYKTQEVFVGSKSTIDITLVDEA | -0.0294
30 | HMGATYSQFLDQVDGGNVQKVTFSGDMRSGTNQISYTTRSGQSATITAPMDRDLINILRAKNVEIVQEEP | 0.22
31 | HMNQDMINFDKLSVRLKNVLIENNLKTVDSLLNYPAEEFEYLTNLGEKTLQELLTYRNELAASNNIQ | -1.17
32 | HMNQIATSTQAIITTLSFLNTSSIFKLPVGDTASRPTGVSPGTLRFNSQEDSAEIYKADDGTGSAGWTEVA | -1.3
33 | HMAGISQGLAENVERRITTLLREQKEVPVHDIDFPGISRETVGQVLHQMVQEEKLLLDDGMISLSPNQ | -0.229
34 | HMHLTEAPLIKITYFEADQKKSGGQYITIINHLKKINEYENLLVLENGVKINIDDIYELESV | -0.804
35 | HMDDPDALITDSQLKAIHVLLGKLKIDDNLKHAYIADVLQLKDIPETLKTLTKHQGSTIIERLNLLIKDA | -0.0657
36 | HMRYPLPYAFARSQQLLLEETDDGRYTLWMSSHPARSAVGEVSRKYGVQTFEVLADGPLAQRISAAYAQ | 0.0965
37 | HMIYKLIADRLKNRINSDEFEVGDALPSEKALAGELEVSVMTIRKALTLLESEKLIVKRHGSGSYVARKSN | 0.0567
38 | HMRHRITEKDKQFRIGQQVWHSEYGKGMVLSVDGIGSSARLTVSFVSGKLAKIIGTFVSTEP | -0.982
39 | HMATLTPLGRLQLARYHAQERATLAATAERFQVSTTTVRRWVGRYHQVVAAGGRPTTADMQDRPSRP | -0.00504
40 | HMFKYRELLDWAKNRFDDLEVSIAPKALALLVESIGTDLRLLDSEIQKLSMYKPLEMISTNDVEDLVA | -1.15
41 | HMSKYLAFTVKKNDELLPFIEKALNGISHTKAKAILANGGAMVNKNTITQYNYPLTPGMTVEISRH | 0.187
42 | HMDDYRSLRGQEKAAIFLMSLSQEQAAKIFANLDDEEIKEISQAMSSLGTVGSEIIERLFVEFAEQVSS | -1.08
43 | HMGKVNGFEITVIEGKNVVGSITPRQAIAKNSDGVIQLRGEQSFSATDQVLINELAFYIKSNNLKA | -1.23
44 | HMAREFPGTIIKRGSRGPDVRWIQQHIGVKLVDGVFGRGTERAVKQFQSRRRLKADGIVGRQTWAAIHN | ≥ 0.43
45 | HMVTLPLLKRGHTGLPVKALQTLLVLRGMSVDVDGSFGEKTESAVRTFQTAAKILSDGEVGKDTWKALI | -0.911
46 | HMVETVQVVGAGQDIMPGSRINYSSLHYITVPRSYFHEDMFAKNNLVVGRIARAYVAKGEPLLAASLMPK | 0.17
47 | HMLSADLLDKIQRIDSLEQQGKYAQAEKEARALLSDPSITPSERASVQNILSSIARKKAAQAQ | 0.0475
48 | HMHDLTERQREILQTLASGKMALREILSILSQPPSLRTLRDELYHLKRIGLVDTMGYGRGATWFLTQ | -0.13
49 | HMIDTLEYIISEESKGLRADQAITMVNGEFSRSLIQKWIKKGSILVNGKKIKPRDILNLNDKVTINPEEN | -0.633
50 | HMFQPEQISKLNELETLVLDFIIKSPDKVQKATIRSLATQLHVSTTTIVRMSTKLGFNGWSELKFFLKNQS | -0.65
51 | HMGTGVEQGKQYRTLKRDFDGASGIKVNGDFYRLRTSDTGMTELPAGTEVTFERFDGTTAVVHT | 0.196
52 | HMATGGKIYIGMNDNGKVVGVSDADKLLEDIPNKVRDVLGIIVDVNLLEENGLKYIEIDVPPYSN | -0.477

Row | Sequence | soluble fraction (log2)
53 | HMTSGTLTLTQDTPVYTEPNKDGGVAYVQPQGDIQWDKYIFANGDNWYSFVQKNRDQEVRFYIAYSDVG | -0.623
54 | HMVTARMPDLFGLDEATAQRMVSNAGLTLKTEYAYSDQAEGYVFDQTPEANAEVRRGGTVTAMIS | -0.375
55 | HMFDKNKPVVVEGENAEVALKKVSKYFNVPTEKLDYTLLGQKSAGLLGIGSKVYQFKVWLKREIP | ≥ 0.43
56 | HMAEEGEQAASNTAAQAEDRAAELAAAGEKGKQITKTLVAEFGIPKNEAYRLALDAVAAVKAER | -0.427
57 | HMGGKWKLRILWHIHHGDTRFSTLKRGIPEISEKILAQQLRELEEHQLIKRRVVTVMPPHVVYEL | -0.518
58 | HMPIGENIKRLRIMHGLSQKELAQIAGVSDKAVSTWENGTKEPRMGAVQKITGYFGLKKSNLIEDNGL | 0.0537
59 | HMETFEKIKELAKKRGKALGQVEEDLGYGRNTLYKIKNSTPNAERIAEIANYFNVSTDYLLGRTDNPTIAK | 0.104
60 | HMPPHGHIVELLPEQDFGRIETGDGRLVYFHRNSVLDGDFAQLAVGDAVRFAEEMGERGPQASSVHVE | -0.948
61 | HMPPLKYLKVKSYLEAVAVKAESAMRMPTVRELMNQFNVSLATVNRALSELENDGVIVRRQGSGIVAAG | ≥ 0.43
62 | HMANKQLQEKLKNYISENGSLSSAAKAIGLSPATLSTYLKDKYEGNVANVETRLTEIFETVEAANNLL | -0.313
63 | HMNNLPDFIKQLRKENNLTQEYVASEIGVSRPTYEQIEKGKRELTISEAEKLAKIFNIPLENFLQGKKGV | -0.0996
64 | HMYTVQPHESLWSIAASQLGDGHRFTEIVDLNQELLGGKANFIKPGWVLQIP | -0.911
65 | HMKPEDIALLEEIRDLLKEKKSVIVNLEYVNKDVARRIVDFISGGVFALNGHIQKVSNSIFLVAPMN | -0.26
66 | HMDLDYSGIMNVLNQKYHITFYNNKKIQNLMPKLMIIMGYNSIINEIGHSKSLKALINSFEEKLKSYILT | -0.403
67 | HMGPGDTTIPTTIIGMSLEEARNELSAAGLLVARIIPVDSNSRTGTVLKITPDAGSIIKAGSGVELEIAS | 0.206
68 | HMTIEEMAIENINFSTQLLYKAMKYNGVNTVGDLLEKARSKKDLLTMAYIGNKEAEEIIEKLSELGITI | -1.84
69 | HMNSVTLEHIVYDFRVFNMLKGSGINDIDELIKAAEDGRLFKIIGSNLTYKRIKKSAAEFGVILPDKPG | -0.45
70 | HMTLVKRSAMVTAWSEFAGGRVNSKLIALQNGKAGDWIELENPQSGRKLRGRVQSDGSVRLGS | 0.017
71 | HMSLGTDVVPDFTGKGIKEAKTEFAAYSEGELYIIGEGEKVKEQFPLPGEKVNKNSDLILYV | 0.0276
72 | HMDSPALAIPSSAILRDGLEHIFFRQDPSDPDQVIRVVADLGLSDGRWTVVRSGLERTDQVVLSGA | -0.281
73 | HMEQVTMSNFLDKWGTSTKSPNAWYTSLSPMQKAEAKLLKEESGLTWNKWYEKNIYVGDGTN | -0.264
74 | HMENRREYQKAIDYLSDQIRAGTLTVGSRLPTERAIAEALGISRNSTREALRTMENMGMIESKQGSGHYLT | -0.0814
75 | HMDRMIPPYGLEVTYDKTTHIIFPSAVRYVDLGSPNLIAGKADGSENVIRVKATRKNFREETNMSVITE | -0.0773
76 | HMSLGSQEYSIGFRNGDSTYHYIDKALKELAYEGVIDELSTQWFGSSRAVDFPSQKDALSELGYIA | 0.22
